We go through 2 sequences from patent publication US9327008B2, “Cell-permeant peptide-based inhibitor of kinases” (Purdue Research Foundation, priority 2008, dated 2016).

What all share (format): biochemical
One experiment deals with T1, MAPK1 (Homo sapiens, UniProt P27361).
T1 construct: purchased Millipore (radiometric assay service)
Briefly: Millipore radiometric kinase activity assay, MAPK1 (h). As for the experimental part:
(§1) A commercial radiometric assay service (Millipore, Billerica, Mass.) was used to test the specificity and potency of peptides containing a coupled transduction domain and therapeutic domain, hereinafter “complete peptides”). In these assays, if the kinase is not inhibited by an inhibitor peptide, a positively charged substrate is phosphorylated with a radiolabeled phosphate group from an ATP.
(§2) In a final reaction volume of 25 μL, MAPK1 (h) (5-10 mU) is incubated with 25 mM Tris pH 7.5, 0.02 mM EGTA, 250 μM peptide, 10 mM MgAcetate and [γ-^33P-ATP] (specific activity approx. 500 cpm/pmol, concentration as required). The reaction is initiated by the addition of the MgATP mix. After incubation for 40 minutes at room temperature, the reaction is stopped by the addition of 5 μL of a 3% phosphoric acid solution. 10 μL of the reaction is then spotted onto a P30 filtermat and washed three times for 5 minutes in 75 mM phosphoric acid and once in methanol prior to drying and scintillation counting.
(§3) IC50 values for inhibitor peptides were determined using Millipore's IC50Profiler Express service. The IC50 value was estimated from a 10-point curve of one-half log dilutions. For peptides tested for specificity, the concentration of the peptides that inhibited approximately 95% of MK2 activity was chosen to profile against a battery of kinases related to MK2, cell viability, or human disease from MilliporeKinaseProfiler service. In both assays, compounds were supplied in dimethylsulfoxide (DMSO). Every kinase activity measurement was conducted in duplicate.
(§4) Therapeutic inhibitor peptides were assayed for activity against human kinases related to MK2, cell viability, or human disease. The assays were performed using concentrations of therapeutic inhibitor peptides that yielded 2% to 8% of normal MK2 activity. Error is reported as the standard deviation between 2 samples, and “c” is rat AMPK whereas all other kinases used are human kinases.

For another experiment, the target named is T2, Syk (Homo sapiens, UniProt P43405).
T2 construct: purchased Millipore (radiometric assay service)
The experiment in a line: Millipore radiometric kinase activity assay, Syk (h). As for the experimental part: as §1
as §2, with “μL, Syk” for “μL, MAPK1”, “with 50” for “with 25”, “7.5, 0.1” for “7.5, 0.02”, “EGTA, 0.1 mM Na3VO4, 0.1% β-mercaptoethanol, 0.1 mg/mL poly(Glu, Tyr) 4:1,” for “EGTA, 250 μM peptide,”, “and [γ-^33PATP]” for “and [γ-^33P-ATP]”, “a Filtermat A” for “a P30 filtermat”
as §3, §4

The target of another experiment is T3, PKCβI (Homo sapiens, UniProt P05771).
T3 construct: purchased Millipore (radiometric assay service)
T3 sequence (P05771 whole entry): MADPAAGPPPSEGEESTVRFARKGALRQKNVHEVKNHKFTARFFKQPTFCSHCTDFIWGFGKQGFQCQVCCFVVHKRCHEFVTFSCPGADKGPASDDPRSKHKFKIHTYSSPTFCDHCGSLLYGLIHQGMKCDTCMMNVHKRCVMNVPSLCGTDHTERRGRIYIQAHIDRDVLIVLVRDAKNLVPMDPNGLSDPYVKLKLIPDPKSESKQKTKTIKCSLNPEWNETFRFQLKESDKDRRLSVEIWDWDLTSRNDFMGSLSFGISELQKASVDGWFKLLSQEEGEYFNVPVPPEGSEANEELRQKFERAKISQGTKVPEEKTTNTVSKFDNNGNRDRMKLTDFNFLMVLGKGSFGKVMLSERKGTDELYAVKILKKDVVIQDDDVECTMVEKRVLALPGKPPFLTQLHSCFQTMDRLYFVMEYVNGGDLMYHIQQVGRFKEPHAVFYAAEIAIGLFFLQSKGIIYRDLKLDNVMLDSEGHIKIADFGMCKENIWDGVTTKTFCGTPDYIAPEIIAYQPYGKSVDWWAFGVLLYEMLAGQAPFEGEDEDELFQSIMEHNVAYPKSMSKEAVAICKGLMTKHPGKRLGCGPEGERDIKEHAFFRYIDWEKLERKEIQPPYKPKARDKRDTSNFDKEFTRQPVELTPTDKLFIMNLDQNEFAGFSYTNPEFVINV
The experiment in a line: Millipore radiometric kinase activity assay, PKCβI (h). As for the experimental part:
as §1
as §2, with “μL, PKCβI” for “μL, MAPK1”, “with 20” for “with 25”, “mM HEPES” for “mM Tris”, “pH 7.4, 0.03% Triton X-100, 0.1” for “pH 7.5, 0.02”, “mM CaCl2, 0.1 mg/mL phosphatidylserine, 10 μg/mL diacylglycerol, 0.1 mg/mL histone H1,” for “mM EGTA, 250 μM peptide,”
as §3, §4

For another experiment, the target named is T4, MEK1 (Homo sapiens, UniProt Q02750).
T4 construct: purchased Millipore (radiometric assay service)
The experiment in a line: Millipore radiometric kinase activity assay, MEK1 (h). As for the experimental part: as §1
The reaction is initiated by the addition of the MgATP. After incubation for 40 minutes at room temperature, 5 μL of this incubation mix is used to initiate a MAPK2 (m) assay.
as §3, §4

The next experiment deals with T5, Pim-1 (Homo sapiens, UniProt P11309).
T5 construct: purchased Millipore (radiometric assay service)
T5 sequence (P11309 whole entry): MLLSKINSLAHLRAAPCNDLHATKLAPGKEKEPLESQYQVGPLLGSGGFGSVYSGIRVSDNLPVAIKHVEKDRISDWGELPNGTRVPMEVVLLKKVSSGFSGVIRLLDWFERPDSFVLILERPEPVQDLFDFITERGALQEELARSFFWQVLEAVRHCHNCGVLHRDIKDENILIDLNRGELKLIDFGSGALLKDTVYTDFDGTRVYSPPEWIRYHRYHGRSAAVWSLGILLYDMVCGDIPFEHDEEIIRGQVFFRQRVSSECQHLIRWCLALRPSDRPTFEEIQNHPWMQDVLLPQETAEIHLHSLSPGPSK
The experiment in a line: Millipore radiometric kinase activity assay, Pim-1 (h). As for the experimental part:
as §1
as §2, with “μL, Pim-1” for “μL, MAPK1”, “with 8” for “with 25”, “mM MOPS” for “mM Tris”, “pH 7.0, 0.2” for “pH 7.5, 0.02”, “mM EDTA, 100” for “mM EGTA, 250”, “μM […] [SEQ ID NO: 59],” for “μM peptide,”
as §3, §4

The next experiment deals with T6, PDGFRβ (Homo sapiens, UniProt P09619).
T6 construct: purchased Millipore (radiometric assay service)
T6 sequence (P09619 33-1106): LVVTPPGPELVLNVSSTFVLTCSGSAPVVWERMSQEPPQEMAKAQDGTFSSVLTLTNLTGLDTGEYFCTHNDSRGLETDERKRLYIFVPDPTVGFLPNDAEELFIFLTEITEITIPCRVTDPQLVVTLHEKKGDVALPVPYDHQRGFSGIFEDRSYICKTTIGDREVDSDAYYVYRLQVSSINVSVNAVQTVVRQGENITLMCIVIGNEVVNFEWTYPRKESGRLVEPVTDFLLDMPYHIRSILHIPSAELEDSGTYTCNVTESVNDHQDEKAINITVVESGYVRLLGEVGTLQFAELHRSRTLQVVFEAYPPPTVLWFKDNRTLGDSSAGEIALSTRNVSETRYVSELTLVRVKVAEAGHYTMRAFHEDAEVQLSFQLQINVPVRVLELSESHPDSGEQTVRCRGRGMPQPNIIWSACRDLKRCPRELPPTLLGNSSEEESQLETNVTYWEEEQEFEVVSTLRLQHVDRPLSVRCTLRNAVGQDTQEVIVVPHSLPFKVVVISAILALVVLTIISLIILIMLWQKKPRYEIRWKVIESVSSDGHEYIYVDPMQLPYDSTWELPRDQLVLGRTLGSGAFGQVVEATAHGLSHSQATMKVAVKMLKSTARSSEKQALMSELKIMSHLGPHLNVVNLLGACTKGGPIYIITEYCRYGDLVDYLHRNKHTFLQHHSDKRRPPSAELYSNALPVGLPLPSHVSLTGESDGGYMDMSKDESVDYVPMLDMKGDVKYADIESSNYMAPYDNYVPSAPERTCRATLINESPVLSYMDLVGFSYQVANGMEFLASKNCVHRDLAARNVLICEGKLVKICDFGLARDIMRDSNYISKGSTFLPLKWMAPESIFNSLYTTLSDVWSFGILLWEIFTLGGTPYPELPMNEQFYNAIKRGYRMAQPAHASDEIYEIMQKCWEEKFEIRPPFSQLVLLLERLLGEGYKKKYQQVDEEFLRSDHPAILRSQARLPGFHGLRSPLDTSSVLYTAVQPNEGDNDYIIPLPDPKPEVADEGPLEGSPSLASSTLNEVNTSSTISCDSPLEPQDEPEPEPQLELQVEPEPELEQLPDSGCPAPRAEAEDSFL
The experiment in a line: Millipore radiometric kinase activity assay, PDGFRβ (h). As for the experimental part:
as §1
as §2, with “μL, PDGFRβ” for “μL, MAPK1”, “with 8” for “with 25”, “mM MOPS” for “mM Tris”, “pH 7.0, 0.2” for “pH 7.5, 0.02”, “mM EDTA, 0.1 mg/mL poly(Glu, Tyr) 4:1, 10 mM MnCl2,” for “mM EGTA, 250 μM peptide,”, “a Filtermat A” for “a P30 filtermat”
as §3, §4

Another experiment deals with T7, BTK (Homo sapiens, UniProt Q06187).
T7 construct: purchased Millipore (assay service)
T7 sequence (Q06187 whole entry): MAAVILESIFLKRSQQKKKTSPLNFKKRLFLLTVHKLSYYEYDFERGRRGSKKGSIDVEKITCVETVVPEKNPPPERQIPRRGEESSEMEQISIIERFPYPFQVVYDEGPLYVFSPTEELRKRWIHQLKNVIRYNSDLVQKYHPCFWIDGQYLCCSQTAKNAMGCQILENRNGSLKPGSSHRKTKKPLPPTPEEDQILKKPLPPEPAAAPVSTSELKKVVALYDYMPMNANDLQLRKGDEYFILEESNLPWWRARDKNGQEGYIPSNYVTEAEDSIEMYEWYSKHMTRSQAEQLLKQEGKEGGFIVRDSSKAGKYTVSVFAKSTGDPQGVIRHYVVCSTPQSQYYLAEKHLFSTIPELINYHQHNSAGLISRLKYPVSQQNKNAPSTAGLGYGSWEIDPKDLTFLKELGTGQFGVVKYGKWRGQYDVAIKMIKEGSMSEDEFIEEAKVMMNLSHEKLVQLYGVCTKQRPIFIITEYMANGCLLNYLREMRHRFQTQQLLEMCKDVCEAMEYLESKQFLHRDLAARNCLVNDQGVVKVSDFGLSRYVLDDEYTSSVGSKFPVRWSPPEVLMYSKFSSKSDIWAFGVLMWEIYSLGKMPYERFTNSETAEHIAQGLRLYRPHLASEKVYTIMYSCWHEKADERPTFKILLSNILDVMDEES
Briefly: Millipore radiometric kinase activity assay, BTK (h). The text has this: A commercial radiometric assay service (Millipore, Billerica, Mass.) was used to test the specificity and potency of peptides containing a coupled transduction domain and therapeutic domain, hereinafter “complete peptides”). In these assays, if the kinase is not inhibited by an inhibitor peptide, a positively charged substrate is phosphorylated with a radiolabeled phosphate group from an ATP. […] The reaction is initiated by the addition of the MgATP mix. […] IC50 values for inhibitor peptides were determined using Millipore's IC50Profiler Express service. The IC50 value was estimated from a 10-point curve of one-half log dilutions. […] In both assays, compounds were supplied in dimethylsulfoxide (DMSO). Every kinase activity measurement was conducted in duplicate. Therapeutic inhibitor peptides were assayed for activity against human kinases related to MK2, cell viability, or human disease. […] Error is reported as the standard deviation between 2 samples, and “c” is rat AMPK whereas all other kinases used are human kinases.

T1 sequence (P27361 whole entry): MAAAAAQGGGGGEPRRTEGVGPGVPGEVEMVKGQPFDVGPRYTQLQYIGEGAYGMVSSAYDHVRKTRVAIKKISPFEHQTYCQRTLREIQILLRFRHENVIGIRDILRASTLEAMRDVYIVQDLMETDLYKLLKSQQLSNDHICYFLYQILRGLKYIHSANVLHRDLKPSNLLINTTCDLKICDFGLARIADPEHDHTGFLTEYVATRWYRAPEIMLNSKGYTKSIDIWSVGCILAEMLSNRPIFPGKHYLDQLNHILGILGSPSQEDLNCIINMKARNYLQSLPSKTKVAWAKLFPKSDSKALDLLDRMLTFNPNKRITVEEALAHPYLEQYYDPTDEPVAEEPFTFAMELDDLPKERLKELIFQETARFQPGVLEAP

In the case of KAFAKLAARLYRKALARQLGVAA, in the experiment with MAPK1 (peptide 100 μM), the “MAPK1 Kinase Activity (%) (+SD %)” value is on record as 108 (1) %. Besides, in the experiment with Syk (peptide 100 μM), the “Syk Kinase Activity (%) (+SD %)” value was 4 (4) %. Moreover, the “PKCβ1 Kinase Activity (%) (+SD %)” value with PKCβI (peptide 100 μM) is 23 (3) %. In addition, the “MEK1 Kinase Activity (%) (+SD %)” value with MEK1 (peptide 100 μM) is reported as 66 (0) %. Besides, the “Pim-1 Kinase Activity (%) (+SD %)” value with Pim-1 (peptide 100 μM) was 1 (2) %. Moreover, in the experiment with PDGFRβ (peptide 100 μM), the “PDGFRβ Kinase Activity (%) (+SD %)” value is on record as 66 (8) %. Also, in the experiment with BTK (peptide 100 μM), the “BTK Kinase Activity (%) (+SD %)” value is 16 (3) %.

In the case of WLRRIKAWLRRIKALNRQLGVAA, the results for the “MAPK1 Kinase Activity (%) (+SD %)” value in the experiment with MAPK1 (peptide 30 μM) and with MAPK1 (peptide 100 μM) were 121 (5) % and 104 (3) %, respectively. The “Syk Kinase Activity (%) (+SD %)” value is given as 19 (3) % in the experiment with Syk (peptide 30 μM) and 38 (9) % with Syk (peptide 100 μM). Also, the “PKCβ1 Kinase Activity (%) (+SD %)” value with PKCβI (peptide 30 μM) is 8 (4) %; with PKCβI (peptide 100 μM), 73 (0) %. Further, the “MEK1 Kinase Activity (%) (+SD %)” value is listed as 14 (2) % with MEK1 (peptide 30 μM) and 68 (2) % with MEK1 (peptide 100 μM). Moreover, the “Pim-1 Kinase Activity (%) (+SD %)” value in the experiment with Pim-1 (peptide 30 μM) was 5 (1) %; with Pim-1 (peptide 100 μM) it was 1 (0) %. The “PDGFRβ Kinase Activity (%) (+SD %)” value with PDGFRβ (peptide 30 μM) is given as 42 (4) %; with PDGFRβ (peptide 100 μM) it was 92 (4) %. In addition, the “BTK Kinase Activity (%) (+SD %)” value is given as 5 (0) % with BTK (peptide 30 μM) and 19 (1) % in the experiment with BTK (peptide 100 μM).
